Consider 6 molecules from US20110212108A1, “NEUREGULIN/ERBB SIGNALING AND INTEGRIN” (THE REGENTS OF THE UNIVERSITY OF CALIFORNIA, priority 2008, published 2011).

Changes are numbered by the printed parent chain. Entries after “also recorded” stand apart in the source; their conditions may differ. Ends that are not written are not given here. GST = glutathione S-transferase

For one assay, the target named is T1, integrin αvβ3 (Homo sapiens, UniProt P05106+P06756).
T1 construct: Soluble recombinant integrin αvβ3 (5 μg/ml) was added to the wells; made in house
As to the kind of experiment: ELISA-type binding of soluble recombinant integrin αvβ3 to immobilized NRG1 fragments. As to conditions: soluble αvβ3, 1 mM Mn2+, room temperature. The procedure: FIG. 1. […] The isolated EGF-like domain of Wt NRG1 was immobilized to wells of 96-well titer plates. The concentrations of the coating solution are shown. Soluble recombinant integrin αvβ3 (5 μg/ml) was added to the wells in the presence of 1 mM Mn^2+ and incubated for 2 h at room temperature. After washing the wells bound αvβ3 was determined by using anti-β3 antibody and HRP-conjugated anti-mouse IgG. The data is shown as means+/−SEM of triplicate experiments. FIG. 7. […] Wt GST-NRG1 (175-222) and the 2KE mutant of GST-NRG1 (175-222) were immobilized to wells of 96-well titer plates. The concentrations of the coating solution are shown. Soluble recombinant integrin αvβ3 (5 μg/ml) was added to the wells in the presence of 1 mM Mn^2+ and incubated for 2 h at room temperature. After washing, the wells bound αvβ3 was determined by using anti-β3 antibody and HRP-conjugated anti-mouse IgG. The data are shown as means+/−SD of triplicate experiments. […] Direct αvβ3-NRG (175-222) interaction: It has been well established that the EGF-like domain of the NRGs is sufficient to specifically activate ErbB receptors and to induce cellular responses in culture. To generate GST-NRG1 EGF-like domain fusion protein, the cDNA fragment of the EGF-like domain of NRG1 was amplified by PCR and subcloned into PGEX-2T vector to generate GST-NRG1 EGF-like domain fusion protein (designated GST-NRG1 (175-222)) in E. coli BL21. The fusion protein was purified in glutathione-affinity chromatography. The affinity resin was extensively washed with 1% Triton X-114 to remove endotoxin before eluting the protein. It was tested, in the present invention, whether soluble recombinant integrin αvβ3 binds to GST-NRG1 (175-222) that is immobilized to plastic wells (ELISA-type assay). […] Cell adhesion and soluble integrin binding assays were performed as described previously (Mori, et al., 2008). NRG1α (175-241) was immobilized to wells of 96-well microtiter plate overnight at 4° C. in 0.1 M carbonate buffer, pH 2 9.4. Remaining protein binding sites were blocked by incubating with 200 μl of 0.1% BSA in PBS for 60 min at room temperature. Wells were then incubated with soluble integrin αvβ3 in 50 μl in Hepes-Tyrode's buffer supplemented with 1 mM Mn2+ at room temperature for 60 min. After rinsing the wells with the same buffer, bound integrins were determined by horseradish peroxidase (HRP)-conjugated anti-His tag mouse IgG and substrate 3,3′,5,5′-tetramethylbenzidine of HRP.
Background: An ELISA detects its analyte on a solid surface through an enzyme-linked reagent.

Assay [1] addresses T2, human integrin αvβ3 on K562 erythroleukemic cells (αvβ3-K562) (human, UniProt P06756 31-1048; P05106 27-788).
T2 construct: whole, on cells; also called K562 cells that express human αvβ3
As to the kind of experiment: cell adhesion of αvβ3-K562 cells.

In assay [2] the target is T3, human integrin α6β4 on CHO cells (α6β4-CHO) (human, UniProt P23229 24-1130; P16144 28-1822).
T3 construct: whole, on cells; also called keratinocyte integrin α6β4
Put plainly: cell adhesion of α6β4-CHO cells to immobilised 3KE (175-222).

Assay [3] addresses T2, human integrin αvβ3 on K562 …. Put plainly: cell adhesion of αvβ3-K562 cells to immobilised 3KE (175-222).
For assay [4] the target is unchanged. As to the kind of experiment: cell adhesion to immobilised NRG1α.
Assay [5] concerns the target T4, Recombinant human ErbB3 Fc chimera (R&D Systems) (human, UniProt P21860 20-643).
T4 construct: Bought from R&D Systems; also called recombinant soluble ErbB3 Fc fusion protein; recombinant soluble ErbB3; Fc part of the bought chimera not given; not described
Put plainly: ELISA-type assay, ErbB3 Fc coated at 1 µg/ml, bound GST fusion detected with anti-GST HRP.

Assay [6] has as its system mammary intraepithelial neoplasia-outgrowth (MIN-O). As to the kind of experiment: Outgrowth of precancer (MIN-O) in FVB mice. The class given is in vivo. As to conditions: 200 ng/day/mouse intraperitoneally, 5 days a week for 4 weeks; P=0.0355. The procedure:
FIG. 16. Inhibitory effect of daily intraperitoneal injection of 3KE (175-222) on the outgrowth of precancer (MIN-O) in FVB mice. MIN-O was transplanted into fat pads of FVB mice (two per mice) and 3KE (175-222) (200 ng/mouse/day) was injected 5 days a week for 4 weeks starting day 0. After 28 days, mice were sacrificed and the dimensions of tumors were measured. Since MIN-O grows as a thin layer, the two-dimensional size was calculated and the thickness was ignored. P=0.0355 by ANOVA between control and 3KE (175-222).
To study the effect of 3KE (175-222) on the premalignant cancer, transplantable mammary intraepithelial neoplasia-outgrowth (MIN-O) tissue lines, which were derived from hyperplastic mammary lesions in young Tg(MMTV-PyV-mT) females (Maglione et al. 2004), were used. The resulting lesions mimic the biological behavior, molecular biology, and histopathology of human ductal carcinoma in situ (Maglione et al. 2004). One mm^3 pieces of the 8w-BMINO tissues (Maglione et al. 2004) were transplanted to gland-cleared no. 4 mammary fat pads of 3-week-old FVB females bilaterally.

T2 sequence (P06756 31-1048, chain 1 of 2): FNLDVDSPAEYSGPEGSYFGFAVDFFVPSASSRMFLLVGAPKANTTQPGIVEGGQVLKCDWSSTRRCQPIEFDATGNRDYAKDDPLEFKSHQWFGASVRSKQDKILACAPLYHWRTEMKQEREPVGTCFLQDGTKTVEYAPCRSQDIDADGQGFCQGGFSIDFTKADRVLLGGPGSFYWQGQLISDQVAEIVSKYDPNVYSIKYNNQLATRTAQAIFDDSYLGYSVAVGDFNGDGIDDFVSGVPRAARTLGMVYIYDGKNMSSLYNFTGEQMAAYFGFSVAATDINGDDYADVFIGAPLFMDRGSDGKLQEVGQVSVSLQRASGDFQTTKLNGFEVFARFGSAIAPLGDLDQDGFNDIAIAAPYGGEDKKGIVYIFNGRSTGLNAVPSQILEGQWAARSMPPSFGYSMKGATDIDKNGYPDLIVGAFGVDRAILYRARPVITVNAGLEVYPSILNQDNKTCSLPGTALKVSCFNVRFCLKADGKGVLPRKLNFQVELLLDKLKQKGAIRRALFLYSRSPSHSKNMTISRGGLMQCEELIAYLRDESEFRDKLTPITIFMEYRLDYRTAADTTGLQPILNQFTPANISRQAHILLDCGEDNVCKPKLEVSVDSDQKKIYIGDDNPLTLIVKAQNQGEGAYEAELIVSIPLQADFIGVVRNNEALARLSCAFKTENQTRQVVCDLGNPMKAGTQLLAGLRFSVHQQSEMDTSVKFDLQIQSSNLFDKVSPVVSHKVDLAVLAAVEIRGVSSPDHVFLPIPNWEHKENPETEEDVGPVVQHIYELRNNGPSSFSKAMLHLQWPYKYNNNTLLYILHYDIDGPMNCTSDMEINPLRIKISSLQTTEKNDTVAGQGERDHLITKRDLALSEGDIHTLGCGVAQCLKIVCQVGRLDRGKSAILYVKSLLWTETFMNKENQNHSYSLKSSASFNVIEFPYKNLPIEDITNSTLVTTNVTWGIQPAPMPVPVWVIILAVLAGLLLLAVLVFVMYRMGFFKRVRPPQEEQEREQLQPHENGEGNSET
T2 sequence (P05106 27-788, chain 2 of 2): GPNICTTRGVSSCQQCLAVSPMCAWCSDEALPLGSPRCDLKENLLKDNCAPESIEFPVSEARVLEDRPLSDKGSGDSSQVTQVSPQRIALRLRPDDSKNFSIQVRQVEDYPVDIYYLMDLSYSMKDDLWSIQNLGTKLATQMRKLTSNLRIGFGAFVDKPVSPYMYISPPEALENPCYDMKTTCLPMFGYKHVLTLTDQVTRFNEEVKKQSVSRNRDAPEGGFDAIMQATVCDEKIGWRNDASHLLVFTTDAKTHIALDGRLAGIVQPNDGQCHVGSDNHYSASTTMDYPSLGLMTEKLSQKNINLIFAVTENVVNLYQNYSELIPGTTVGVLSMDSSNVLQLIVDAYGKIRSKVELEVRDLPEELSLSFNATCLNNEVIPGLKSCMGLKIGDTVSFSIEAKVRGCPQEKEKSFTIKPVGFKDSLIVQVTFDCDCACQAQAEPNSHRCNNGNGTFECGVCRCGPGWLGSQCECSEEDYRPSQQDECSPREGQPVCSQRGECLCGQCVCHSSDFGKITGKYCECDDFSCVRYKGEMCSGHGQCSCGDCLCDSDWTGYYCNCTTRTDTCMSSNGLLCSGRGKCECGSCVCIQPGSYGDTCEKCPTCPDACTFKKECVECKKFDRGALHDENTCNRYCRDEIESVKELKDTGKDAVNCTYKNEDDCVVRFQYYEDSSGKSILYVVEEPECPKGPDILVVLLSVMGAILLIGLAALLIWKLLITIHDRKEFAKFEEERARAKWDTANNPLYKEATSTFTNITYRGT
T1 sequence (P06756 31-992 limits assumed): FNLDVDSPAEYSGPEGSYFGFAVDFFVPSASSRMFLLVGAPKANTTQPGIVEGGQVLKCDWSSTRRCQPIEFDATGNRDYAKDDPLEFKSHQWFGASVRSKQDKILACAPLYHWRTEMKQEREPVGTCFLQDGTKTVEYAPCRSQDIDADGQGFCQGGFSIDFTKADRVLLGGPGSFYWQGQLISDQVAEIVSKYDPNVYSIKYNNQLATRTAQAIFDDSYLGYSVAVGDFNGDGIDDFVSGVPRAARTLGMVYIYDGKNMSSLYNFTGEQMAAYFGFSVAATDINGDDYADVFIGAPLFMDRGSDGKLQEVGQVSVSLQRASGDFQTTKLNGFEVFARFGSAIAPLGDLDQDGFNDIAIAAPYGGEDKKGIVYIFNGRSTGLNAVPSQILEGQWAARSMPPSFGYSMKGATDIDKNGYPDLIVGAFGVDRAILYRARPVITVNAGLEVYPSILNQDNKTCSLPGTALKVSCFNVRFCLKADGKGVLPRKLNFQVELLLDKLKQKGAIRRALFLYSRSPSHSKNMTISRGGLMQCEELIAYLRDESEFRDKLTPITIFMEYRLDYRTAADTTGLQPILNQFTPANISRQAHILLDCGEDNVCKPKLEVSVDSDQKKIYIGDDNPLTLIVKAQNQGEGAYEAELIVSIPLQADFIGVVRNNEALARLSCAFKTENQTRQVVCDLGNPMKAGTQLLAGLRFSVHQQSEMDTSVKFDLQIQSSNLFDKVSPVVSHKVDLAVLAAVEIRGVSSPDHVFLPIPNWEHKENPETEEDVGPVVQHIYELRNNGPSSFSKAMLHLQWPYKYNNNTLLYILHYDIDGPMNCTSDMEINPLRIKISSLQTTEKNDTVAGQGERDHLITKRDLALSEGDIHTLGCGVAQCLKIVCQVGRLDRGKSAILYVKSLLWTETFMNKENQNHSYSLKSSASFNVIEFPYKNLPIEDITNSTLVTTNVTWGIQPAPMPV
T1 sequence (P05106 27-718 limits assumed): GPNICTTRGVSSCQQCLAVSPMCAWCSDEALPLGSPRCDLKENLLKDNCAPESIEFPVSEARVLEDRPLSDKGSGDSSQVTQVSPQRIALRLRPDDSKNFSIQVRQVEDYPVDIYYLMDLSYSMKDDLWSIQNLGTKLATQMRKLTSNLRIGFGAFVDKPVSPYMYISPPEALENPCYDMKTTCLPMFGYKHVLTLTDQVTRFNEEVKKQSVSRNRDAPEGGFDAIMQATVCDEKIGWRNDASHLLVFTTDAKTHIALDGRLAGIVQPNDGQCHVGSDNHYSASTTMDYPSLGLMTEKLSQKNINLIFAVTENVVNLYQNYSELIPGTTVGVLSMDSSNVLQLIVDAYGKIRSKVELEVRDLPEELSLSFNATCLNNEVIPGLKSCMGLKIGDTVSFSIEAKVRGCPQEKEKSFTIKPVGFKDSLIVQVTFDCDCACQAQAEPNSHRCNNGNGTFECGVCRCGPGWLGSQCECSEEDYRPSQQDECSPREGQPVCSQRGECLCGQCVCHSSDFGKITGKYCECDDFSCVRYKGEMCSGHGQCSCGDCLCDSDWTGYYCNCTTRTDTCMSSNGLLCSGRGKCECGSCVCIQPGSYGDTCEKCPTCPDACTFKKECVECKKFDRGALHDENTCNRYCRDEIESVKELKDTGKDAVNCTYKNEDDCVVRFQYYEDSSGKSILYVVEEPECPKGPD
T4 sequence (P21860 20-643, change not shown): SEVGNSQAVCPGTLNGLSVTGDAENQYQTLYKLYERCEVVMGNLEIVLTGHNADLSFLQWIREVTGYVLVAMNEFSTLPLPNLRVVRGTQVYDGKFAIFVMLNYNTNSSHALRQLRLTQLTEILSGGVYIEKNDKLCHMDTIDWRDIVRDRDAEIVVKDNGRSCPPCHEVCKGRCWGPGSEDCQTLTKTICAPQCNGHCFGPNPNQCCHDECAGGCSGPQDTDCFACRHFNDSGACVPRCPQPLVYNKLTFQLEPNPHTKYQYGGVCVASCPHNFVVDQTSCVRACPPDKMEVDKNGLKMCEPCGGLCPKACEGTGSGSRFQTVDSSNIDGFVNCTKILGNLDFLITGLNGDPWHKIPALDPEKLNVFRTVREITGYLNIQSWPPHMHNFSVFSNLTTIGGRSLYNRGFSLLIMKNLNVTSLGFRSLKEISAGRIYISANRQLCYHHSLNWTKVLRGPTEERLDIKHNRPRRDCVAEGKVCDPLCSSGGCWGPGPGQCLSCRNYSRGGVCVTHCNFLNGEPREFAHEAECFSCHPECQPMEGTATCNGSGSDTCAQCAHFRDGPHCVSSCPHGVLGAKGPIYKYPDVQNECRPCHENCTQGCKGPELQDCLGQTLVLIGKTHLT

With “2KE (175-222): NRG1 (175-222) with Lys185/Lys187 mutated to Glu; GTSHLVKCAEEEETFCVNGGECFMVKDLSNPSRYLCKCQPGFTGARCT (SEQ ID NO:12) (integrin-binding site within human neuregulin, 2KE mutant, short version)”, in the assay with integrin αvβ3, the “Binding of soluble recombinant integrin αvβ3 to the immobilized protein” value is on record as “much lower affinity to αvβ3; also recorded: did not”.

B1: GST-NRG1 (175-222), wild type EGF-like domain of human neuregulin 1 as GST fusion protein (ligand)
chain: {GST}-GTSHLVKCAEKEKTFCVNGGECFMVKDLSNPSRYLCKCQPGFTGARCT
modifications: not fully specified; cysteine pairing not given here
notes: Made in E. coli as GST fusion (pGEX-2T); not shown: glutathione S-transferase (GST) tag as encoded by the pGEX-2T vector, N-terminal
Regarding B1, the binding result in assay [1] was “binds”.

For the molecule GTSHLVECAEEEETFCVNGGECFMVKDLSNPSRYLCKCQPGFTGARCT (ligand, not shown: a dimerising Fc or GST; large carriers; small tags and cut ends) [3KE (175-222) mutant of NRG1 (Lys181/Lys185/Lys187 to Glu), GST fusion protein], the binding result in assay [2] and in assay [3] was “no binding” in each case.

B2: GST-NRG1α (175-241), wild type (EGF-like motif and α domain of human neuregulin 1α as GST fusion protein) (ligand)
chain: GTSHLVKCAEKEKTFCVNGGECFMVKDLSNPSRYLCKCQPGFTGARCTENVPMKVQNQEKAEELYQK
notes: not shown: glutathione S-transferase (GST) tag as encoded by the pGEX-2T vector, N-terminal
As to B2, the binding result in assay [4] and in assay [5] was “binds” throughout.

B3: 3KE (175-241) mutant of NRG1α (Lys181/Lys185/Lys187 to Glu), GST fusion protein (ligand, not shown: a dimerising Fc or GST; large carriers; small tags and cut ends)
chain: B2 chain with K7E, K11E, K13E
On to B3, for which, in assay [5], the binding result is given as “binds”.

B4: γC399tr: Control protein in the MIN-O experiment (protein)
chain: KDCQDIANKGAKQSGLYFIKPLKANQQFLVYCEIDGSGNGWTVFQKRLDGSVDFKKNWIQYKEGFGHLSPTGTTEFWLGNEKIHLISTQSAIPYALRVELEDWNGRTSTADYAMFKVGPEADKYRLTYAYFAGGDAGDAFDGFDFGDDPSDKFFTSHNGMQFSTWDNDNDKFEGNCAEQDGSGWWMNKCHAGHLNGVYYQGGTYSKASTPNGYDNGIIWATWKTRWYSMKKTTMKIIPFNRLTIGEGQQ
B4: the “Outgrowth of MIN-O in FVB mice” value in assay [6] is “did not affect the outgrowth of MIN-O”.
